Measured values taken from publication PMC11652881.

Assays:
[1] = target: recombinant wild-type cardiac actin (WTRec-ACTC), as F-actin filaments (human) (UniProt P68032); assay: TIRF microscopy of labelled tropomyosin binding along actin filaments; rhodamine phalloidin-labelled ACTC filaments held on bovine ventricular HMM (0.5 mg/ml) on a nitrocellulose-coated coverslip; Alexa-Tm added while recording at 10 frames per second; fluorescence along a filament normalised from 1 to 100 percent; elongation rate = slope of the binding curve from 0 to 15 s
[2] = target: recombinant wild-type cardiac actin (WTRec-ACTC), as F-actin filaments (human) (UniProt P68032); assay: co-sedimentation; 7 uM F-actin with 0.1 to 2 uM tropomyosin in 100 mM KCl, 5 mM MgCl2, 20 mM Tris pH 8, 1 h at 25 C; 100,000 rpm 20 min (TLA100); Tm in the pellet by SDS-PAGE densitometry, normalised 0-100; fit to specific binding with Hill slope

Substance | Elongation Rate [1] | Kd [2]
Alexa488-labeled tropomyosin (bovine ventricular tropomyosin modified on Cys-190) (from UniProt Q5KR49 1-284) (natural protein) | 4.56 s⁻¹ | 
tropomyosin purified from bovine ventricular ether powder (from UniProt Q5KR49 1-284) |  | 533 nM
